Experimental data: publication PMC7971519

Target: PRRSV nonstructural protein 2 transframe product (nsp2TF) (porcine reproductive and respiratory syndrome virus 2 (PRRSV-2), isolate SD95-21)
Experiment: co-IP; lysates of PRRSV-infected MARC-145 cells collected at 8, 10 and 12 hpi; IP with rabbit anti-nsp2TF pAb or anti-nsp2 pAb (C-terminal peptides); blots probed with anti-GP5 and anti-M mAbs; densitometry; mock-infected lysate as control

Substance | fold more M protein co-precipitated than in the nsp2 IP, 8 hpi [fold] | fold more M protein co-precipitated than in the nsp2 IP, 10 hpi [fold] | fold more M protein co-precipitated than in the nsp2 IP, 12 hpi [fold] | fold more GP5 co-precipitated than in the nsp2 IP, 8 hpi [fold] | fold more GP5 co-precipitated than in the nsp2 IP, 10 hpi [fold] | fold more GP5 co-precipitated than in the nsp2 IP, 12 hpi [fold]
PRRSV membrane (M) protein (natural protein) | 3.38 | 3.44 | 2.77 |  |  | 
PRRSV GP5 glycoprotein (natural protein) |  |  |  | 3.39 | 3.26 | 3.36
